The test concerns the target OptoSTIM1 (CRY2 E281A) (Arabidopsis thaliana) (UniProt Q13586). Kind of test: cell-based or functional assay.

The substance “OptoSTIM1 (CRY2 E281A) (from UniProt Q13586 238-668)” returned an activation half-maximal time (R-GECO1 level upon light stimulation) of 62 s and an inactivation half time (R-GECO1 level after light removal) of 7 min.

Source of the values: patent publication US20220002362A1.
